Source: article PMC11213015

B1: ZA (UpxZ of the PSA operon, Bacteroides fragilis) (natural protein)
chain: MNQVQNLQHIARELLYLGMDGSPIYTDHFRQLNTEVFRLSEALFSMKGATSEEEAAICLSLLMGYNATIYNDGDKESKIQSILDRSFAVLDHLPASLLKCQLLTYCYGEVFEEDLAQEAHQIMDSWKNRALSEEELEVMETLQTMEDNRYPCSEVED
B2: ZE (UpxZ of the PSE operon, Bacteroides fragilis) (natural protein)
chain: MNTLMTQIHELQHVAHELLYLGADGSPIYTDSFRQLNTEVLQKSDALFALKGENPEEEARLCLALLMGYNATIYDYGDKESKKQVILDRSLLVLESLPSSLLKCQLLTYCYGEVFEEELAKEAHAIIDYWDNKTLSIDEQETVDMLKMIEENQYPNNYID

Target: biotinylated-YE (UpxY of the PSE operon, Bacteroides fragilis) (Bacteroides fragilis NCTC 9343)
Assay: BLI

Binder	Kd [nM]	kon [M⁻¹ s⁻¹]	koff [s⁻¹]
B1	0.9	1.1e+06	
B2	88	110000	0.0096
